Test results taken from article PMC8379094 (Cell Reports, 2021).

How the values were obtained:
[1] = biological target: SARS-CoV-2 spike S1 subunit, wild type, recombinant (SARS-CoV-2, WT (QHD43416, Wuhan-Hu-1), UniProt P0DTC2); experiment: BLI
[2] = biological target: SARS-CoV-2 spike receptor binding domain, wild type, recombinant (Severe acute respiratory syndrome …, UniProt P0DTC2); experiment: BLI

B1: BL6 mAb (antibody, V domains shown)
VH: EVQLVESGGGLVQPGRSLRLSCEVSGFTFEDYDMQWVRQAPGKGLEWVSGISWNGGIIGYGDSVKGRFTISRDNAKNSLYLQMNSLRGEDTALYSCAKALHSGDDSGQQAFDIWGQGTMVTVSS
VL: SYVLTQPPSVSVAPGQTAKITCGENNIGRRSVHWYQQKPGQAPVLVIFNDSDRPSGIPERFSGSMSGNTATLTISRVEAGDEADYYCQVWDSGSDHVVFGGGTELTVL
Question: Does B1 bind [1]?
Answer: binds

Question: Does B1 bind [2]?
Answer: binds
